Assay [1] concerns the target T1, human CD33-His (extracellular domain Asp 18-His 259) (human, UniProt P20138 18-259).
T1 construct: range 18-259; bought protein; also called hCD33-his; human CD33 protein; not shown: His tag
The experiment in a line: ELISA, antigen coated. As to the method: In order to assay the binding activity of VHH-Fc to human CD33 protein, a human CD33-his protein (purchased from ACROBiosystems, Cat. No. CD3-H5226) was diluted with PBS to make a final concentration of 2 μg/mL, and then added into a 96-well ELISA plate at 100 μL/well. The plate was sealed with a plastic film and incubated at 4° C. overnight, washed twice with PBS the next day, and a blocking solution [PBS+2% (w/w) BSA] was added for blocking at room temperature for 2 h. The blocking solution was discarded, and VHH-Fc antibody or negative control antibody serially diluted from 100 nM was added at 50 μL/well. After incubation at 37° C. for 2 h, the plate was washed 3 times with PBS. A secondary antibody labeled with HRP (horseradish peroxidase) (purchased from Sigma, Cat. No. A0170) was added. After incubation for 1 h at 37° C., the plate was washed 5 times with PBS. A TMB substrate was added at 50 μL/well. After incubation at room temperature for 10 min, a stop solution (1.0 N HCl) was added at 50 μL/well. The OD450 nm values were read on an ELISA plate reader (Multimode Plate Reader, EnSight, purchased from Perkin Elmer). The assay results for the binding of the VHH-Fc to hCD33-his by ELISA are shown in FIGS. 7A and 7B and Tables 11 and 12. […] The IgG control was hIgG1, and the data in the table are OD450 nm values.

The target of assay [2] is T2, human CD33 on CHO-K1 cells (CHO-K1-human CD33) (human, UniProt P20138 18-364).
T2 construct: whole, on cells; stably transfected CHO-K1 clones; also called CHO-K1-hCD33-B8; CHO-K1-human CD33 B8
The experiment in a line: FACS, CHO-K1-human CD33 cells. The method, then:
The desired cells were expanded to a logarithmic growth phase in a T-75 cell culture flask. For adherent cells CHO-K1, the culture medium was removed by pipetting, and the cells were washed twice with a PBS buffer, digested with trypsin, and washed twice with a PBS buffer again after the digestion was stopped. For suspension cells U937, the medium supernatant was discarded by direct centrifugation, and the cell pellet was washed twice with PBS, and then incubated with a buffer containing human Fc Block (purchased from BD, Cat. No. 564220) for 15 min. After the cells obtained in the last step were subjected to cell counting, the cell pellet was resuspended to 2×10⁶ cells/mL with a blocking solution [PBS+2% (w/w) BSA] and added to a 96-well FACS reaction plate at 50 μL/well. The VHH-Fc antibody (a sample to be tested) was added at 50 μL/well, and the plate was incubated on ice for 2 h. […] After the plate was centrifuged and washed 5 times with a PBS buffer, the results were assayed and analyzed by FACS (FACS Canto™, purchased from BD Biosciences), so as to obtain the mean fluorescence intensity (MFI) of cells. Then, analysis was performed by software (GraphPad Prism8), data were fitted, and EC50 values were calculated.

The target of assay [3] is T1, human CD33-His (extracellular domain …). As to the kind of experiment: competitive ELISA vs coated S006-NB146-60 2ug/mL; soluble 25ug/ml. The method, then: VHH antibodies and control antibodies with known epitopes were subjected to epitope classification with competitive ELISA. ELISA plates were coated with 2 μg/mL antibodies according to the method in Example 5.1; the human CD33-his protein was subjected to a gradient dilution from 30 μg/mL, and EC80 values (Tables 26-27) were calculated. ELISA plates were coated with 2 μg/mL antibodies; after 25 µg/mL of antibodies to be tested were added, a human CD33-his protein having an EC80 concentration corresponding to each of the antibodies to be tested was then added for incubation for 2 h. The plates were washed 5 times with PBS, then HRP-labeled anti-His antibodies (purchased from GenScript, Cat. No. A00612) were added for incubation for 1 h, and the plates were washed 5 times. A TMB substrate was added at 50 μL/well and incubated at room temperature for 10 min, then a stop solution (1.0 M HCl) was added at 50 μL/well. OD_{450 nm} values were read using an ELISA plate reader (Insight, purchased from PerkinElmer), and the competition rate between the antibodies was calculated according to the OD_{450 nm} values using a formula. The results are shown in FIGS. 12A-12B, the higher the value of the competition rate, the closer the epitopes to which two antibodies bind.

The target of assay [4] is T3, human CD33-his protein (human, UniProt P20138 18-259).
T3 construct: range 18-259; bought protein; also called hCD33-his; recombinant human CD33-his; not shown: His tag
As to the kind of experiment: competition ELISA, coated human CD33-his, vs Biotin-C33B904 at EC80; antibody 500 nM. The method, then: (§1) ELISA plates were coated with 2 μg/mL human CD33-his protein according to the method in Example 5.1; the Biotin-C331B904 antibody was subjected to a gradient dilution from 15 μg/mL, and EC80 values (0.18 μg/mL) were calculated. ELISA plates were coated with 2 μg/mL human CD33-his protein; starting from 40 μg/mL, the VHH antibodies to be tested were diluted in a 1:2 dilution ratio to obtain seven concentrations and added to the ELISA plates, and then Biotin-C331904 antibodies with the EC80 concentrations were added for incubation for 2 h. The plates were washed 5 times with PBS and then […] (purchased from Sigma, Cat. No. S2438) were added for incubation for 1 h, and the plates were washed 5 times. A TMB substrate was added at 50 μL/well and incubated at room temperature for 10 min, then a stop solution (1.0 M HCl) was added at 50 μL/well. OD_{450 nm} values were read using an ELISA plate reader (Insight, purchased from PerkinElmer). Then, analysis was performed by software (GraphPad Prism8), and data were fitted for curve plotting. The results are shown in FIGS. 13A-13B and Tables 28 and 29.

Assay [5] concerns the target T3, human CD33-his protein. The experiment in a line: competition ELISA, coated human CD33-his, vs Biotin-C33B904 at EC80; antibody 3.91 nM. The method, then: as §1

T1 sequence (P20138 18-259 limits assumed): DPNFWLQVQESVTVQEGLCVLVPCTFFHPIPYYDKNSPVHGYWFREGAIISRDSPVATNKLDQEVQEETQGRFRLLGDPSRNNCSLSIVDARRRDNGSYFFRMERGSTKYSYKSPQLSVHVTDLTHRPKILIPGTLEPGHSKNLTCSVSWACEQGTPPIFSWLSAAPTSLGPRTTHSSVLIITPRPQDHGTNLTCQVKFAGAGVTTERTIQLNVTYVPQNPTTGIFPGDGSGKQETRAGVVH
T2 sequence (P20138 18-364): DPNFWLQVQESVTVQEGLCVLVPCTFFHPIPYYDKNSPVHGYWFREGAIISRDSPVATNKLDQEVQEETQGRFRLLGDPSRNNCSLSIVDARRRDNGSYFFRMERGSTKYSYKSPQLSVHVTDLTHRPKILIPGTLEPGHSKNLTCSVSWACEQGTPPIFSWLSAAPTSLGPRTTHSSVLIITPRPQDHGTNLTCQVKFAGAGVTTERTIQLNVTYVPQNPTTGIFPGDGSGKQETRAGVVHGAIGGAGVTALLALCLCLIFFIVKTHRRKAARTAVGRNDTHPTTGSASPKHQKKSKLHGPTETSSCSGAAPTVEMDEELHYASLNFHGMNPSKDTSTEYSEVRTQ
T3 sequence (P20138 18-259 limits assumed): as the sequence (P20138 18-259 limits assumed) above

B1: C33B904 hIgG1 (antibody, V domains shown)
VH: EVQLVESGGGLVQPGRSLRLSCAASGFTFDDYAMHWVRQAPGKGLEWVSGIGWSGGSIVYADSVKGRFTISRDNAKNSLYLQMNSLRAEDTALYYCAKDSPYGDFFDYWGQGTLVTVSS
VL: DIVMTQSPDSLAVSLGERATINCKSSQTVFYSSNNKNYLAWYQQKPGQPPKLLISWASTRKSGVPDRFSGSGSGTDFTLTVSSLQAEDVAVYYCQHYYSTPYTFGQGTKLEIKR
notes: intact human IgG1; variable regions from US20190382481A1; also called C33B3904; C331B904
On to B1, for which, in assay [1], the “OD450 at 0.0001 nM” value was found to be 0.04 OD450, the “OD450 at 0.001 nM” value worked out at 0.05 OD450, the “OD450 at 0.01 nM” value came out at 0.14 OD450 and the “OD450 at 0.1 nM” value came out at 0.53 OD450. For the same molecule, in assay [1], the “OD450 at 1 nM” value came to 1.92 OD450, the “OD450 at 10 nM” value was 2.55 OD450 and the “OD450 at 100 nM” value was 2.61 OD450. In assay [2], it took 12.5 nM to reach a half-maximal effect (EC50) and the “Max MFI” value was 15000 MFI. This molecule showed an inhibition rate in assay [3] of 8%.

B2: C33B904 (antibody, human IgG1, kappa, V domains shown)
VH: B1 VH
VL: B1 VL
notes: control antibody, intact human IgG1 form; variable regions from US20190382481A1; also called C33B904 hIgG1; C331B904
Turning to B2, the “OD450 (Biotin-C33B904 signal)” value in assay [4] is 0.08; in assay [5], 1.77.

(Values after patent US20240124575A1 (SIMCERE ZAIMING PHARMACEUTICAL, published 2024).)
